Values belong to the molecule of their own block, whether it stands above or below them.
Key:
[1] = target: human α2β1 integrin (VLA-2) expressed on human cancer cell lines (human) (UniProt P17301); assay: flow cytometry, hIgG4-FITC control on HT-1080 cells
[2] = target: human α2β1 integrin (VLA-2) expressed on human cancer cell lines (human) (UniProt P17301); assay: flow cytometry, 10 µg/mL hIgG4-FITC control on AsPC-1 cells
[3] = target: human α2β1 integrin (VLA-2) expressed on human cancer cell lines (human) (UniProt P17301); assay: flow cytometry, 10 µg/mL hIgG4-FITC control on HPAF-II cells
[4] = target: human α2β1 integrin (VLA-2) expressed on human cancer cell lines (human) (UniProt P17301); assay: flow cytometry, 10 µg/mL hIgG4-FITC control on SK-BR-3 cells
[5] = target: T1, human α2β1 integrin (VLA-2) expressed on human cancer cell lines (human, UniProt P17301 30-1181; P05556 21-798); assay: inhibition of adhesion of HT-1080 cells to human collagen type I, mean of 3
T1 construct: also called α2 integrin; CD49b (α2 subunit)
Description: (§1) Ninety six well ELISA plates (black cliniplate, Thermo Firsher scientific, cat n^o 9502867) were coated with 100 μl of human collagen type I (SIGMA, cat n^o C7774) at 50 μg/mL in Acetic Acid 0.02N or in PBS. Collagen was either diluted in acetic acid and incubated for 1 hour at 37° C. or diluted in PBS and incubated overnight at 4° C. Plates were blocked with 150 μl of PBS supplemented with 0.1% BSA or 1% BSA (Sigma, cat n^o A3059). Cells were first labelled with CFSE (Invitrogen cat n^o C34554) into serum free DMEM medium (PAA, cat n^o E15-005). Three μl of a 15 mM CFSE solution was added to 5 ml cells at a concentration between 1×10⁶ cells/ml to 0.6×10⁶ cells/ml. Cells were incubated with CFSE for 10 minutes at 37° C. and CFSE excess was removed by centrifugation of the cells at 900 rpm for 3 min. CFSE-labelled cells were resuspended at a concentration between 0.6×10⁶ to 1×10⁶ cells/ml in DMEM supplemented with 0.1% BSA. […] Wells in the plates were filled with PBS and fluorescence with excitation at 498 nm and emission at 525 nm was measured using Synerg HT2 fluorometer. Data were analyzed using PRISM software. Activity of the anti-VLA-2 antibody was expressed as EC₅₀ which is defined as the concentration of antibody that provokes a response halfway between the baseline and the maximum response. […]

[6] = target: T1, human α2β1 integrin (VLA-2) expressed …; assay: inhibition of cell adhesion to human collagen type I; ratio between two cell lines
Description: as §1

[7] = target: T1, human α2β1 integrin (VLA-2) expressed …; assay: inhibition of adhesion of AsPC-1 cells to human collagen type I, mean of 2 experiments
Description: as §1

[8] = target: T1, human α2β1 integrin (VLA-2) expressed …; assay: inhibition of adhesion of HPAF-II cells to human collagen type I, mean of 2 experiments
Description: as §1

[9] = target: T1, human α2β1 integrin (VLA-2) expressed …; assay: inhibition of adhesion of SK-BR-3 cells to human collagen type I, mean of 2 experiments
Description: as §1

[10] = target: T1, human α2β1 integrin (VLA-2) expressed …; assay: inhibition of adhesion of CFSE-labelled AsPC-1 cells to human collagen type I, experiment I
Description: as §1

[11] = target: T1, human α2β1 integrin (VLA-2) expressed …; assay: inhibition of adhesion of CFSE-labelled AsPC-1 cells to human collagen type I, experiment II
Description: as §1

[12] = target: T1, human α2β1 integrin (VLA-2) expressed …; assay: inhibition of adhesion of CFSE-labelled HPAF-II cells to human collagen type I, experiment I
Description: as §1

[13] = target: T1, human α2β1 integrin (VLA-2) expressed …; assay: inhibition of adhesion of CFSE-labelled SK-BR-3 cells to human collagen type I, experiment I
Description: as §1

[14] = target: T1, human α2β1 integrin (VLA-2) expressed …; assay: inhibition of adhesion of CFSE-labelled HPAF-II cells to human collagen type I, experiment II
Description: as §1

[15] = target: T1, human α2β1 integrin (VLA-2) expressed …; assay: inhibition of adhesion of CFSE-labelled SK-BR-3 cells to human collagen type I, experiment II
Description: as §1

Chain of human α2β1 integrin (VLA-2) expressed on human cancer cell lines (human) (P17301 30-1181 E534K limits assumed, chain 1 of 2): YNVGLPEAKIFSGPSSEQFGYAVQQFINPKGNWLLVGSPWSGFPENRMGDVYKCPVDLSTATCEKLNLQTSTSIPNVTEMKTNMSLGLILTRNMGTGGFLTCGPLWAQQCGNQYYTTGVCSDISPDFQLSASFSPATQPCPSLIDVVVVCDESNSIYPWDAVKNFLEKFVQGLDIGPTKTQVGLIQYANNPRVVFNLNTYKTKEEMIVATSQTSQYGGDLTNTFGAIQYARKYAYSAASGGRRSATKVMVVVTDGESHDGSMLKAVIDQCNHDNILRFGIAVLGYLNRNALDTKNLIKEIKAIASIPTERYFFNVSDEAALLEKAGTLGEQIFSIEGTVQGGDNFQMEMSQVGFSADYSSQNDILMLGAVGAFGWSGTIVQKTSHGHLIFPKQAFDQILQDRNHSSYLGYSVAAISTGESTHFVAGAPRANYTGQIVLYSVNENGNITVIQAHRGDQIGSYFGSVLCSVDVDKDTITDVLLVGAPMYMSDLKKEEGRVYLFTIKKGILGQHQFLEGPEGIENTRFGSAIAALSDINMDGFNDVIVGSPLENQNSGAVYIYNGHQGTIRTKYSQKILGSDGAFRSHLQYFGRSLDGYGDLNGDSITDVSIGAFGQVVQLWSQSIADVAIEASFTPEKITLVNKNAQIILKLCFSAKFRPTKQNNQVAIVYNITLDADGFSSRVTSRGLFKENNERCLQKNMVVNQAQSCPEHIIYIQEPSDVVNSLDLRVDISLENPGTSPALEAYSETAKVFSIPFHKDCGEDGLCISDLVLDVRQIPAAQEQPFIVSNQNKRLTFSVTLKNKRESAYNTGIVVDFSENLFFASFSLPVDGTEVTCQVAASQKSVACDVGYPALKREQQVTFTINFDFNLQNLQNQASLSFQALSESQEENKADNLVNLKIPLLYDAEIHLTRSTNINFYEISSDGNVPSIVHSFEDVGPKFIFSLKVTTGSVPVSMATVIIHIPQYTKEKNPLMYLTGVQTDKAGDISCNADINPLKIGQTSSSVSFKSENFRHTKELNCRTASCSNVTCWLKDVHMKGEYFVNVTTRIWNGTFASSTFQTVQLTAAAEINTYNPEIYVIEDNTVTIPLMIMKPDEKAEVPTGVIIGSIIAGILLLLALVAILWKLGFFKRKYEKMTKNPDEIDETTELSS
Chain of human α2β1 integrin (VLA-2) expressed on human cancer cell lines (human) (chain, as listed by the source limits assumed, chain 2 of 2): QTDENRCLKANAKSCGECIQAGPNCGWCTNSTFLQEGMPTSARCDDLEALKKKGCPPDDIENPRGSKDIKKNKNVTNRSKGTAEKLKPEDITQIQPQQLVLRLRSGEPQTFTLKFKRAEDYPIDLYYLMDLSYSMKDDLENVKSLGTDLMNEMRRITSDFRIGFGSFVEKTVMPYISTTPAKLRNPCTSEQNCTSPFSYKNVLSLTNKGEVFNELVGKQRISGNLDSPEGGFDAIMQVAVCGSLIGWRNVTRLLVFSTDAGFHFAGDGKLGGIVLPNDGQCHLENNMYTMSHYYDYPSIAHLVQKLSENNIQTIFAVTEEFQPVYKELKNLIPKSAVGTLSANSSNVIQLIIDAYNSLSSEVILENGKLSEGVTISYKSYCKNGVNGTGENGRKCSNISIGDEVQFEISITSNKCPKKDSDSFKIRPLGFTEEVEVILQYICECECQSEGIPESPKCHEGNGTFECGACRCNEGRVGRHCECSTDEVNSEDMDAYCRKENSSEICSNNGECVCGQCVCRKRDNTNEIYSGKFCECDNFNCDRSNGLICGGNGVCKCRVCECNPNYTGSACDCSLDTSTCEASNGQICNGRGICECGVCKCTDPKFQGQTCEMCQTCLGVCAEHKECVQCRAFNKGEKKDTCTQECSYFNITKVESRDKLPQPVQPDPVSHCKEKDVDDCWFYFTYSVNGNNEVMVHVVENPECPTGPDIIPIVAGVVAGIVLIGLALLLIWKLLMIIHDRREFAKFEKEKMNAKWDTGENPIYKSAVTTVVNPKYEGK
T1 sequence (P17301 30-1181 E534K limits assumed, chain 1 of 2): as the sequence (P17301 30-1181 E534K limits assumed, chain 1 of 2) above
T1 sequence (P05556 21-798 limits assumed, chain 2 of 2): as the sequence (chain, as listed by the source limits assumed, chain 2 of 2) above

MFI [1]: 4.9 | MFI [2]: 6.8 | MFI [3]: 14.9 | MFI [4]: 3.4
Molecule: hIgG4 isotype control antibody

EC50 [5]: 0.076 µg/mL | fold EC50 on HPAF-II cells against EC50 on AsPC-1 cells [6]: 3.9 fold | EC50 [7]: 0.041 µg/mL | EC50 [8]: 0.163 µg/mL | EC50 [9]: 0.036 µg/mL | EC50 [10]: 0.047 µg/mL | EC50 [11]: 0.036 µg/mL | EC50 [12]: 0.224 µg/mL | EC50 [13]: 0.039 µg/mL | EC50 [14]: 0.103 µg/mL | EC50 [15]: 0.032 µg/mL
B1: GBR500, humanized anti-human α2 integrin antibody (antibody, human IgG4, kappa, V domains shown)
VH: QVQLQESGPGLVKPSETLSLTCTVSGFSLTNYGIHWIRQPPGKGLEWLGVIWARGFTNYNSALMSRLTISKDNSKNQVSLKLSSVTAADTAVYYCARANDGVYYAMDYWGQGTLVTVSS
VL: DFVMTQSPAFLSVTPGEKVTITCSAQSSVNYIHWYQQKPDQAPKKLIYDTSKLASGVPSRFSGSGSGTDYTFTISSLEAEDAATYYCQQWTTNPLTFGQGTKVEIKR
notes: Its isotype-matched control is a humanized IgG4; also called GBR500-FITC; Biotin-GBR500

EC50 [5]: 0.097 µg/mL | fold EC50 on HPAF-II cells against EC50 on AsPC-1 cells [6]: 3.6 fold | EC50 [7]: 0.08 µg/mL | EC50 [8]: 0.29 µg/mL | EC50 [10]: 0.074 µg/mL | EC50 [11]: 0.087 µg/mL | EC50 [12]: 0.326 µg/mL | EC50 [14]: 0.253 µg/mL
B2: TMC-2206, mouse anti-human α2 integrin antibody (BHA2.1 hybridoma) (antibody, V domains shown)
VH: QVQLKESGPGLVAPSQSLSITCTVSGFSLTNYGIHWVRQPPGKGLEWLGVIWARGFTNYNSALMSRLIITKDNSQSQVFLKMNSLQPDDSATYFCARANDGVYYAMDYWGQGTSVTVSS
VL: QFVLTQSPAFLSASPGEKVTMTCSANSSVNYIHWYQQKSGTSPKKWIYDTSKLASGVPVRFSGSGSGTSYSLTISSMETEDAATYYCQQWTTNPLTFGAGTRVELK
notes: Murine monoclonal antibody (Glenmark/Millipore, cat. MAB1998); also called MAB1998

Source: US20100158904A1 (GLENMARK PHARMACEUTICALS S A, published 2010)
